The supplement of paper PMC12764529
± gives the half width of the 95% confidence interval.

test: folding stability dG unfold (combined trypsin and chymotrypsin); higher = more stable
How it was run: (§1)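 Designed mini-proteins with no cysteine and under 80 residues were kept only if AlphaFold2 dimer inter-PAE was above 15. In a PA-tagged cDNA display construct, they were digested with trypsin and chymotrypsin and then sequenced. K50 was inferred by Bayesian fitting of counts, and unfolding free energy was derived per protease or combined against a sequence-predicted unfolded-state K50 and a shared folded-state K50.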

Row | Sequence | folding stability dG unfold [kcal/mol]
1 | SAGMKVPVTVKMKAEKEEELEKVIKEIKEETGFEFEVEKNPETKEYTVKVYATPEVVEILKKKGFDVESAGG [r19_306_TrMRF] | 2.77 ± 0.24
2 | SAGGSAGGSAGGQLKLKLKVKVTTRVRDPATGKTYTVTEEVEVTVELEFPPPPLPPGFKSAGGSAGGSAGGS [r10_1026_TrROS_Hall] | 3.64 ± 0.21
3 | SLKPGEWVMFMFTIPITIRITKDDLPPGWKIKEVTIRIYVMFLFRVDPDGNFKILSFNIMIEIEVKYEPDSA [r9_747_TrROS] | 4.98 ± 0.11
4 | SAGGSAGGSAGLTFTLPDGTKITIETLEDGSVKIKIETLTPDGKPLEAEFVIPGSHPDEDSAGGSAGGSAGG [r17_471_TrMRF] | 3.58 ± 0.13
5 | SAGGGKTVEVTIEVPGENAVVYIKVYDKDKPISVFPAEFIPPTGTATFTIDVPEDAEITAEVALPEEASAGG [r13_977_TrMRF] | 0.687 ± 0.091
6 | SAMTKTETFTFDDVEITVTTTEVTLPNGEKKDVYTLTKYTVDPSTGTTTPSSKTFSSKEEMEAALKASLSAG [r14_500_JUSTAS] | 3.97 ± 0.16
7 | SAGGSGGLRVELPFLLPDGYRVTLTVNPETGEITEIRVEPIDAVPPEPEVLPVVGFDPRYGVPLVLSAGGSA [r2_78_TrMRF] | 0.812 ± 0.12
8 | SAGGMIRIERDGDRLTIQIPMPPGQPPTPEQVEEFARDILKKLGPDVRVKDVSHDPNGGFTIELKVPSAGGS [r8_103_TrROS] | 1.81 ± 0.069
9 | SAGGITIRGMPWEWAEEIAKTLAQEGYRLKDVEVEEDPPDGYYSVTVQQRDPETGKPKKPVTISIPPSAGGS [r16_750_TrROS] | 0.515 ± 0.43
10 | SAGDNLKIDVEVEPAKVILGEFDENGKLIKPIEKDVLIVKVTVTFSNGKKLEIRATFFDGKLISVSSGSAGG [r19_44_TrMRF] | 5.07 ± 0.19
11 | SAGPDLPFDVRLVEVRDMEVRVTPDGRLVVTLPMVGRHPSGFLVRRTIRFEPETDRVEATGEVRPLDESAGG [r19_320_TrMRF] | 0.774 ± 0.059
12 | SAGGSAGGSAGDAEEIADEIRENMYGPDGKYVPKEVEIKEIEPPPGQLKVEIEMPPGMPISAGGSAGGSAGG [r17_519_TrROS] | 1.32 ± 0.16
13 | SAGKKVTIKAIVRVKLANGEWFEAKVKEVTFDEETGEVTITVEVDGKTYTITVPLEDIELVDDAEEALKSAG [r5_15_TrROS_Hall] | 3.25 ± 0.063
14 | SMSTNLVVKEKLIPPGVLVVTYKKDGKPVKVETKVVVIPPQLVVEEVLYPGGKLALKTYDPLTGTPSFELSA [r9_343_JUSTAS] | 0.337 ± 0.29
15 | SAGGSSSMVTRTPSTSTVTVKRGNGPVTVSLPTTVVTRPDGSRTLETTVDTKDPAGNPAATTVTPAPSAGGS [r16_581_JUSTAS] | 0.643 ± 0.093
16 | SAGGSAMTAEELARKLFPGAEVEVEVRLERNEDGSLSLRVEVRVRAAPPPEEEEVEEPEEVEEEEESAGGSA [r15_417_TrROS_Hall] | 2.2 ± 0.28
17 | SAGHPWMFRAKVEYDDGKPVGEREINIPGMPIDDIASDLFNEPGLRKVKIEFYWMDGEPQEIEIPVKPSAGG [r19_269_TrROS] | 0.689 ± 0.21
18 | SAGGSAGGSAGGSWITFRIPEGNPEFIEELARGFGIKPKRINPNRGTITIKLPPGAKIVSAGGSAGGSAGGS [r4_3_TrROS] | 0.641 ± 0.11
19 | SAGGSAGGKKIRIRIPLPDGTWVEVEVYFSEDGIYSFYIPPTGKLVLIDVGENGIKITIIDLPPSAGGSAGG [r6_58_TrMRF] | 4.38 ± 0.43
20 | SAGGSAGGSAPPVKTITVELVFFNPETQEVFVLRAEVRLLPDGTLEIRTEIERVKVEPGAVLLSAGGSAGGS [r12_116_TrROS_Hall] | 2.09 ± 0.15
21 | SAGGSAGGSAVETLVTYEVPEDLPPDSLSPEAVIARFAPLGVPTEVVEIDPATGTVTVRTLVPSAGGSAGGS [r12_733_JUSTAS] | 0.664 ± 0.047

Row | Sequence | folding stability dG unfold [kcal/mol]
22 | SAGGSAGGSAKRKVIEVDSLEEIKKAIEEAKEGEVVEIVVRDPETNETYTLKVVDGKIVLIPSAGGSAGGSA [r18_407_TrROS_Hall] | 2.27 ± 0.049
23 | SAGGSAGGSAGKKKLTVTVKKKKPAKEKKKVKTKVVKEKKLELSEEELKKLLDELKELLESAGGSAGGSAGG [r11_418_TrROS_Hall] | 0.321 ± 0.16
24 | SAGGSAGGSAGMVTETTVSRLPDGTVTTTTTEYVVHPDGSLEPVRERTTTTPVPPDVPAASAGGSAGGSAGG [r11_440_JUSTAS] | 0.897 ± 0.037
25 | SAGGSAMTIEIEAPVPAGVEVDATALFVTPDGYLYLAEVRSVGPGWARITIPVYRFDDNLDDPDFLSAGGSA [r15_909_TrMRF] | 2.17 ± 0.051
26 | SAGMPETITIKIRNPETGKLYEIEIEKVDGEVKVTIRDVETGKERREITMTPEEVRELLKELGFEVEEVSAG [r5_291_TrROS_Hall] | 2.63 ± 0.059
27 | SAGGSAGGSDNVKIEWEYNPENGVYTHEVYYDDGRPVTIIINPAEGPIWVFDPPDGKPIAPIPSAGGSAGGS [r12_657_TrROS] | 1.07 ± 0.073
28 | SAGGSAGGSMEEIIEEIKKKVPKDKYAEIEIEVPFPDGSKKKFKIKFYPETNEFEVEELEEIPSAGGSAGGS [r12_305_TrMRF] | 3.88 ± 0.24
29 | SAGGSAGGSAGFHIDVEVHRDDEGYVKVRVKMYMYNPDPGEPMGSFEMTIWIPPEDADKLSAGGSAGGSAGG [r11_575_TrROS] | 3.7 ± 0.098
30 | SAGGSEEIKKLLASGQLDEVIALLKKKGYENVTVTPDPRKPVVTINVTKTDPKTGKKKTTTITIPTGLSAGG [r13_359_JUSTAS] | 3.92 ± 0.086
31 | SAGGSAGGSAGVPDNAKIRLAFEFDGYIVLIEATPGTGFIKNIDKVEVFPVIPNTGEVTGSAGGSAGGSAGG [r11_66_TrMRF] | 1.79 ± 0.13
32 | SAGGSAGGSAGGSWLEFTFIDPGYGWIISTMKIEINPNGNLNMDMEMVPLKPADDPEDASAGGSAGGSAGGS [r4_178_TrROS] | 2.9 ± 0.16
33 | SAGGSAGGSATRVEVEWKDGYLVITKYETLPNGEWKEVKTIVIPIEGNDPIAIEKAKEVIEKLSAGGSAGGS [r12_169_JUSTAS] | 2.9 ± 0.064
34 | SAGMEITTVTLPDGTKLITITLPVPGGPSITADVPYDPATGKVTLLKITGEDPALEALAKEAVEKLKKESAG [r5_266_JUSTAS] | 1.09 ± 0.11
35 | SAGGSAGGKKVYEIKGLTPEQIRALVKENKGKVTIYYKDGKKEEKTIKEGDEIAPGETVYIEVESAGGSAGG [r6_303_TrROS_Hall] | 1.56 ± 0.21
36 | SAGGMTEVSVSEELRAEGGGLERVLVVTITTVTKVYPVGSSNKVEYEESTIVIPADDPAALEAAGVLLSAGG [r13_670_JUSTAS] | 0.257 ± 0.16
37 | SAGGSAGGSASVTVVPSPGPTTTVVTFSPDDTVTVTTHTVDPSAATSTPTTTTVSLSDPAAASAGGSAGGSA [r18_503_JUSTAS] | 1.73 ± 0.03
38 | SAGGSAGGSSMTITVTDLVTGEPGEIPEELKAELAAEAEESGSAVTFEITTPDGKKYRAEITPSAGGSAGGS [r12_41_JUSTAS] | 1.1 ± 0.1
39 | SAGGSAGGSAGSMSLPVTELVVESVDPLEGVLVVKVKGTLPDGSEVELTLEFKPDEPLELSAGGSAGGSAGG [r11_211_JUSTAS] | 0.71 ± 0.11
40 | SAGGSATLTLEAEFRLEDGTTVRVRVEVSPDGTVRIEVEVLPAPPPPPKVEVKEVFTTADGRKVLLSAGGSA [r2_78_TrROS_Hall] | 1.57 ± 0.1
41 | SAGGSAGGSAGFYKAKLKILKTKVYSNEKGTKKKTYKPVLILEELIPPKIPKELWEKLNKSAGGSAGGSAGG [r11_318_TrMRF] | 0.55 ± 0.57
42 | SAGIPYRVLELEIPGVGVRVEVRLAPDGRIVEVRVTVVPVPPVPPALPLRPELLVPDEDGRWYSPEELLSAG [r5_685_TrMRF] | 2.44 ± 0.11

test: folding stability dG unfold from chymotrypsin proteolysis; higher = more stable
How it was run: as §1

Row | Sequence | folding stability dG unfold [kcal/mol]
43 | SAGMKVPVTVKMKAEKEEELEKVIKEIKEETGFEFEVEKNPETKEYTVKVYATPEVVEILKKKGFDVESAGG [r19_306_TrMRF] | 3.2 ± 0.081
44 | SAGGSAGGSAGGQLKLKLKVKVTTRVRDPATGKTYTVTEEVEVTVELEFPPPPLPPGFKSAGGSAGGSAGGS [r10_1026_TrROS_Hall] | 4.2 ± 0.17
45 | SLKPGEWVMFMFTIPITIRITKDDLPPGWKIKEVTIRIYVMFLFRVDPDGNFKILSFNIMIEIEVKYEPDSA [r9_747_TrROS] | 5.1 ± 0.081
46 | SAGGSAGGSAGLTFTLPDGTKITIETLEDGSVKIKIETLTPDGKPLEAEFVIPGSHPDEDSAGGSAGGSAGG [r17_471_TrMRF] | 3.76 ± 0.14
47 | SAGGGKTVEVTIEVPGENAVVYIKVYDKDKPISVFPAEFIPPTGTATFTIDVPEDAEITAEVALPEEASAGG [r13_977_TrMRF] | 0.904 ± 0.14
48 | SAMTKTETFTFDDVEITVTTTEVTLPNGEKKDVYTLTKYTVDPSTGTTTPSSKTFSSKEEMEAALKASLSAG [r14_500_JUSTAS] | 4.036 ± 0.04
49 | SAGGSGGLRVELPFLLPDGYRVTLTVNPETGEITEIRVEPIDAVPPEPEVLPVVGFDPRYGVPLVLSAGGSA [r2_78_TrMRF] | 0.344 ± 0.14
50 | SAGGMIRIERDGDRLTIQIPMPPGQPPTPEQVEEFARDILKKLGPDVRVKDVSHDPNGGFTIELKVPSAGGS [r8_103_TrROS] | 2.15 ± 0.051
51 | SAGGITIRGMPWEWAEEIAKTLAQEGYRLKDVEVEEDPPDGYYSVTVQQRDPETGKPKKPVTISIPPSAGGS [r16_750_TrROS] | 0.0769 ± 0.44
52 | SAGDNLKIDVEVEPAKVILGEFDENGKLIKPIEKDVLIVKVTVTFSNGKKLEIRATFFDGKLISVSSGSAGG [r19_44_TrMRF] | 5.26 ± 0.086
53 | SAGPDLPFDVRLVEVRDMEVRVTPDGRLVVTLPMVGRHPSGFLVRRTIRFEPETDRVEATGEVRPLDESAGG [r19_320_TrMRF] | 0.804 ± 0.087
54 | SAGGSAGGSAGDAEEIADEIRENMYGPDGKYVPKEVEIKEIEPPPGQLKVEIEMPPGMPISAGGSAGGSAGG [r17_519_TrROS] | 0.954 ± 0.077
55 | SAGKKVTIKAIVRVKLANGEWFEAKVKEVTFDEETGEVTITVEVDGKTYTITVPLEDIELVDDAEEALKSAG [r5_15_TrROS_Hall] | 3.72 ± 0.064
56 | SMSTNLVVKEKLIPPGVLVVTYKKDGKPVKVETKVVVIPPQLVVEEVLYPGGKLALKTYDPLTGTPSFELSA [r9_343_JUSTAS] | 0.644 ± 0.28
57 | SAGGSSSMVTRTPSTSTVTVKRGNGPVTVSLPTTVVTRPDGSRTLETTVDTKDPAGNPAATTVTPAPSAGGS [r16_581_JUSTAS] | 0.98 ± 0.048
58 | SAGGSAMTAEELARKLFPGAEVEVEVRLERNEDGSLSLRVEVRVRAAPPPEEEEVEEPEEVEEEEESAGGSA [r15_417_TrROS_Hall] | 1.99 ± 0.052
59 | SAGHPWMFRAKVEYDDGKPVGEREINIPGMPIDDIASDLFNEPGLRKVKIEFYWMDGEPQEIEIPVKPSAGG [r19_269_TrROS] | 0.457 ± 0.28
60 | SAGGSAGGSAGGSWITFRIPEGNPEFIEELARGFGIKPKRINPNRGTITIKLPPGAKIVSAGGSAGGSAGGS [r4_3_TrROS] | 0.645 ± 0.096
61 | SAGGSAGGKKIRIRIPLPDGTWVEVEVYFSEDGIYSFYIPPTGKLVLIDVGENGIKITIIDLPPSAGGSAGG [r6_58_TrMRF] | 4.47 ± 0.27
62 | SAGGSAGGSAPPVKTITVELVFFNPETQEVFVLRAEVRLLPDGTLEIRTEIERVKVEPGAVLLSAGGSAGGS [r12_116_TrROS_Hall] | 2.22 ± 0.11
63 | SAGGSAGGSAVETLVTYEVPEDLPPDSLSPEAVIARFAPLGVPTEVVEIDPATGTVTVRTLVPSAGGSAGGS [r12_733_JUSTAS] | 1 ± 0.037
